Reference: paper PMC5039005

Key:
[1] = target: Samp1-YFP (human) (UniProt Q5SNT2); assay: cross-linking + co-IP
[2] = target: Str-Ct.Samp1(1–180) (Chaetomium thermophilum); assay: pull-down

percent of total RanGTP bound in live cells [1]	Substance	fold binding, RanGTP against RanGDP [2]	percent of RanGTP pulled down at a 1:1 molar ratio [2]
1%	Ran (endogenous in tsBN2 and BHK-21 cells) (from UniProt A0A8C2MF66 1-216) (natural protein)	–	–
–	His6-Ran (from UniProt P62826 1-216) (natural protein)	1.8 fold	40%
